Source: patent US20060140970A1, “Proteic binding partners of TCTP and methods of modulating tumor reversion or cell apoptosis” (priority 2003, published 2006)
Where two headings read alike, the source gives them in different places.

Assays:
[1] = target: T1, eEF1A (eEF1Bαγ-mediated GDP exchange) (Oryctolagus cuniculus, UniProt P68105); assay: eEF1Bαγ-mediated GDP exchange on eEF1A; format: biochemical, rabbit; settings: TCTP at a final concentration of 2 μM
T1 construct: Rabbit liver eEF1A was purified as described in Shalak et al; from tissue; host or cells: rabbit liver (eEF1A only)
T1 sequence (P68105 2-462 limits assumed): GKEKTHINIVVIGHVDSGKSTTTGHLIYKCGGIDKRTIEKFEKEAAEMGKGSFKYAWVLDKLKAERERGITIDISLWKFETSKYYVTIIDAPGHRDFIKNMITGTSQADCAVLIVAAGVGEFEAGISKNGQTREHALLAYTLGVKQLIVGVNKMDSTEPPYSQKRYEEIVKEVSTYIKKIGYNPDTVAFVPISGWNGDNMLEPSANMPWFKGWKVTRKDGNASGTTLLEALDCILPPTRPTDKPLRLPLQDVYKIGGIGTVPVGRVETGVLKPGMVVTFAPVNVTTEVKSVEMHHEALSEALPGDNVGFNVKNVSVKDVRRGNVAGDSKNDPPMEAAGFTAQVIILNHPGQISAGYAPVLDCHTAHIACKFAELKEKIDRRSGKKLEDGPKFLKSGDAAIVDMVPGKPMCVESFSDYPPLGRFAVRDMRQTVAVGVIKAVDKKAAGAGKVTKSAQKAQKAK
Description: (§1) Guanine nucleotide exchange assay. Rabbit liver eEF1A was purified as described in Shalak et al., Ukr Biokhim Zh, 69: 104-9 (1997), incorporated herein by reference. The guanine nucleotide exchange on eEF1A was monitored as described in Negrutskii et al., J Biol Chem, 274: 4545-50 (1999) and Bec et al., J Biol Chem, 269: 2086-92 (1994), both of which are incorporated herein by reference. The eEF1A-[^3H]GDP complex was prepared following incubation of 4 μM eEF1A with 4 μM [^3H]GDP (Amersham Biosciences; 1500 Ci/mol) in 80 μl of 45 mM Tris-HCl (pH 7.5) containing 0.5 mM DTT, 10 mM magnesium acetate, 100 mM NH4Cl, 1 mg/ml bovine serum albumin and 25% glycerol for 5 minutes at 37° C. The reaction mixture was placed on ice and diluted by addition of 640 μl of ice-cold exchange buffer [20 mM Tris-HCl (pH 7.5), 10 mM magnesium acetate, 50 mM NH4Cl, 10% glycerol]. The exchange reaction was conducted at 0° C. after addition of 160 μl of exchange buffer containing nucleotide and specified exchange factors. Aliquots of 100 μl were taken at times indicated and immediately filtered through nitrocellulose filters (Millipore; pore size 0.45 μm). Filters were washed 3 times with 1 ml of ice-cold washing buffer [20 mM Tris-HCl (pH 7.5), 10 mM magnesium acetate, 100 mM NH4Cl, 0.1 mg/ml bovine serum albumin], dried and counted in a liquid scintillator. […]

eEF1A = target: T2, eEF1A (Oryctolagus cuniculus, UniProt P68105); assay: Guanine nucleotide exchange assay on eEF1A (eEF1A-[3H]GDP dissociation); format: biochemical, rabbit
T2 construct: Rabbit liver eEF1A was purified as described in Shalak et al; from tissue; host or cells: rabbit liver
T2 sequence (P68105 1-462): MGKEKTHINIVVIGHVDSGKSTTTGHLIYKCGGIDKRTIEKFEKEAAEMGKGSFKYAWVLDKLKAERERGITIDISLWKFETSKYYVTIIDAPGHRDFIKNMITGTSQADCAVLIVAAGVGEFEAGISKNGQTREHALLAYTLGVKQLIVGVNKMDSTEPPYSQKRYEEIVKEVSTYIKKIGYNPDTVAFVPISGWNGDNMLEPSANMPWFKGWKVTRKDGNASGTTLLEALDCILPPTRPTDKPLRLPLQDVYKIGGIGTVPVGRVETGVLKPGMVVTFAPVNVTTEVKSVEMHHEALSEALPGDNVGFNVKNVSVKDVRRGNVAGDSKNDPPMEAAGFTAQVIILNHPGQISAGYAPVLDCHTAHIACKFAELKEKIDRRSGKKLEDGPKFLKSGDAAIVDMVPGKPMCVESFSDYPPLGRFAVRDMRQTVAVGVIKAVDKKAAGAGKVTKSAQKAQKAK
Description: Guanine nucleotide exchange assay. Rabbit liver eEF1A was purified as described in Shalak et al., Ukr Biokhim Zh, 69: 104-9 (1997), incorporated herein by reference. The guanine nucleotide exchange on eEF1A was monitored as described in Negrutskii et al., J Biol Chem, 274: 4545-50 (1999) and Bec et al., J Biol Chem, 269: 2086-92 (1994), both of which are incorporated herein by reference. The eEF1A-[^3H]GDP complex was prepared following incubation of 4 μM eEF1A with 4 μM [^3H]GDP (Amersham Biosciences; 1500 Ci/mol) in 80 μl of 45 mM Tris-HCl (pH 7.5) containing 0.5 mM DTT, 10 mM magnesium acetate, 100 mM NH4Cl, 1 mg/ml bovine serum albumin and 25% glycerol for 5 minutes at 37° C. The reaction mixture was placed on ice and diluted by addition of 640 μl of ice-cold exchange buffer [20 mM Tris-HCl (pH 7.5), 10 mM magnesium acetate, 50 mM NH4Cl, 10% glycerol]. The exchange reaction was conducted at 0° C. after addition of 160 μl of exchange buffer containing nucleotide and specified exchange factors. Aliquots of 100 μl were taken at times indicated and immediately filtered through nitrocellulose filters (Millipore; pore size 0.45 μm). Filters were washed 3 times with 1 ml of ice-cold washing buffer [20 mM Tris-HCl (pH 7.5), 10 mM magnesium acetate, 100 mM NH4Cl, 0.1 mg/ml bovine serum albumin], dried and counted in a liquid scintillator.
The functional relevance of a TCTP and eEF1A association was further investigated by monitoring the effects of TCTP on the rate of dissociation of GDP from the eEF1A-[^3H]-GDP complex. Whether TCTP preferentially binds to the GDP-bound form of the factor (and pushes the equilibrium toward the formation of eEF1A-GDP) or associates with the nucleotide free form of eEF1A (and displaces the exchange reaction toward the formation of eEF1A) was determined.
This corresponded to a rate of 0.082±0.004 pmol GDP exchanged/min/pmol of eEF1A. In the absence of free GDP in the incubation mixture, the eEF1A-[^3H]-GDP complex remained stable over a period of 40 minutes. Increasing amounts of TCTP (0.2 μM to 3.0 μM) were added in the exchange assay and the rate of dissociation of the eEF1A-[^3H]-GDP complex was monitored in the presence of 150 μM free GDP (FIG. 15A).

[2] = target: T3, eEF1A (eEF1Bβ-mediated GDP exchange) (Oryctolagus cuniculus, UniProt P68105); assay: eEF1Bβ-mediated GDP exchange on eEF1A; format: biochemical, rabbit; settings: TCTP at a final concentration of 2 μM; simple first-order
T3 construct: Rabbit liver eEF1A was purified as described in Shalak et al; Full-length TCTP, eEF1Bβ and NKTR cDNAs were cloned in-frame into pGEX-6P; GST (N, cleaved yes); made in house; host or cells: eEF1Bβ: E. coli BL21DE3; eEF1A: purified from rabbit liver
T3 sequence (P68105 2-462 limits assumed): T1 sequence (P68105 2-462 limits assumed)
Description: as §1

bovine brain tubulin = assay: In vitro tubulin polymerization assay (absorbance at 340 nm); format: biochemical; settings: 3 μg purified protein, 2 mg/ml tubulin, 32° C.
Description: In vitro tubulin polymerization assays. Pure bovine brain tubulin protein was reconstituted at a final concentration of 10 mg/ml in cold G-PEM buffer (80 mM Piperazine-N,N′-bis-[2-ethanesulfonic acid] equisodium salt (PIPES), 0.5 mM magnesium chloride (MgCl2), 1 mM ethylene glycol-bis-(b-amino-ethyl ether)-N,N,N′,N′-tetra-acetic acid (EGTA), 1 mM Guanosine 5′-triphosphate (GTP), pH 6.9). Samples of 2 mg/ml tubulin in G-PEM buffer were incubated either with 3 μg of ovalbumin (negative control), with 3 μg of purified recombinant TCTP protein, or with […] of purified recombinant OP18 protein. Then, the samples were placed in quartz cuvettes and incubated at 32° C. Tubulin polymerization was observed by measuring the absorbance of the solution at 340 nm over time.
Since TCTP exerts tubulin and microtubules binding properties (Gachet et al., J. Cell Sci., 1 12(Pt 8): 1257-1271 (1999)), whether TCTP could directly regulate the microtubule dynamics was investigated. An in vitro tubulin polymerization assay, using purified tubulin, was developed. […] In the presence of 3 μg of purified OP18 from E. Coil, the polymerization of tubulin was abolished.

Arf1-GAP / [D17]ARF1 = Arf1-GAP / [D17]ARF1 (Homo sapiens, UniProt P84077); assay: GTP-GDP exchange activity of Arf1-GAP on [D17]ARF1, tryptophan fluorescence; format: biochemical; settings: 30 uM TCTP, 0.5 uM [D17]ARF1-GDP, 100 uM Arf-GAP; presence vs absence of TCTP
Description: Into a buffer containing 1 mM free Mg^2+, 30 uM TCTP and 0.5 uM [D17]ARF1 -GDP were added. The reaction was initiated by the addition of 40 uM GTP and 2 mM EDTA. To stop the reaction, 2 mM MgCl2 was added. The Arf-GAP, at a concentration of 100 uM, was added. The reaction was measured in presence and absence of TCTP. […] In particular, it is shown that TCTP inhibits the GTP-GDP exchange catalyzed by Arf1-GAP, implicating that Arf1 is kept in its active conformation in presence of TCTP.

- guanine nucleotide exchange activity (eEF1A): devoid of exchange activity
- Kd (eEF1A; 150 μM free GDP, TCTP 0.2 μM to 3.0 μM, saturation kinetics, read-out: apparent dissociation constant Kd (inhibition of GDP exchange on eEF1A)): 1.2 ± 0.2 µM
- binding of nucleotides by the protein itself (eEF1A; TCTP by itself): did not bind nucleotides
- Kd (eEF1A; unlabeled free GTP (150 μM) in the exchange reaction, read-out: apparent Kd of TCTP for the GDP form of eEF1A): 1.6 ± 0.3 µM
- GTP-GDP exchange catalyzed by Arf1-GAP (Arf1-GAP / [D17]ARF1): inhibits
Substance: TCTP: purified recombinant TCTP protein, bacterially expressed, GST moiety removed
- initial rate of GDP exchange in the presence of eEF1Bαγ [1]: 0.96 min⁻¹
- rate of GDP dissociation (eEF1A; 3 μM TCTP, 150 μM free GDP): 0.026±0.003 pmol GDP exchanged/min/pmol of eEF1A
- rate of GDP dissociation (eEF1A; with TCTP, unlabeled free GTP (150 μM) instead of GDP): 0.024±0.003 pmol GDP exchanged/min/pmol of eEF1A
- initial rate of GDP exchange in the presence of eEF1Bβ [2]: 0.294 min^−1 per pmol of eEF1Bβ
- polymerization of purified tubulin (bovine brain tubulin): did not appear to affect the polymerization rate
